Laboratory results from the DeepSol protein solubility set.

Experiment: soluble on expression in E. coli; label from the status in PepcDB or PDB records

Soluble on expression in E. coli, not soluble:
MGSDKIHHHHHHMIGLNCKPLYIENAENQLYNPTLNIKTTMTYLETAAQFYSEVAQTPQVGLCCVQSTPLQLPGLKIPLSMQEMNYGCGTTVHPTELGKQPTVLYVGVGGGLEALQFAYFSRRPGAVIAVDPVAAMREAAARNLEMALTDNPWFESSFVEIREGDAFNLPVADGSVDIVAQNCLFNIFEPEDLTRALKEAYRVLKCGGRLQMSDPIATSPIPAHLQQDERLRAMCLSGALTYEEYTQRIIDAGFGQIEIRARRPYRLLDSQTYNLETHLLLESLDSVSFKVPIPEDGACIFTGKTAIYAGCEDFFDDKAGHILQRGIPATVCDKTAAKLATVKPKEVIITDSTWHYNGGGCC
MPPTGIFFNVNGKDIKEENVDPELTLAYYLRNKLGLRGTKLGCEEGVCGSCTVVLGTWDDSLNKAVYSAVNACLVPLFHVHKTFVITVEGVGSRDKIHPIQDRMARGHAVQCGFCSPGFVMSAYALLRNHPNPTIEQINAAIRANLCRCTGYRPILEALYSFSSSGGGCCGGKKAGAGCCKDLSSEDEAYEKLTSFNDFPEYDPSQEIIFPPSLRIFVDSENPVTLKGDRIELLLPKSIEQFKEFKKDRTVISSGLITRFIATRNPKEFSQKWITTKYVKEFNEVIENPETVVIGAAVNIQKMSDILSRSLSQNIGKEVDAFIKKFSSPQIANFATWTGGIVSGAKSSISVSDLLLLFNVLNAKLTLLTDSGDLTQVNIEEFVEKKLFATNTIVNTVFSSSITGQLFCLKLGETSEQDSTSFNFAALVGNNISRIFVGLGGPPKRLTSLEEHIFALKNLDVPDLCKTSGMGENKNIKIALTRLSKFMKNVEKTAETVDGLNYLQYFKPTERKSVGRPLANYFNERAITGEALYVNDIQTYNPVHLGFVLSTVPHAEILSIDATEALKLEGVVGFFGASDVPGNNSPGLQISNMNLPDDATIFADKKVESVGQVVGVIAANDVLLARRAAKLVKLEYKELPALVELKDAIVAKSLLGKVRHFGKSEYLVNESLVHSYKVLEGESSLGSQEHFYLETQSSLNYRIVHCSTQGTSFTQLMVAETMKIPAHKIIVKTKRMGGAFGGKLNNASWIACICSVVAKKLNRPTYGVGINSDGKVQGIHHQAWLNGGWSKDHTEGVTMVMGQFVDDVYNMGTVRYDGYPVKTNTNSNTAFRGYGNPQAKLVSEGVMRRIAREVGKSTEEVKKLNFAFEGEKRYLSGNIYSDAHIECWEYCTRWSDFEKRKETIENFNKTSKIVKRGIAMSSVRLALSHPGPPGHGVASLMINLDGSIQLSIGGTEMGQGLNQKMLQVCSEALKRPIDTITIVDCSTDKITNAPETGASHNADTNGLAVLACCERIMSRLQPIIDKNDGDWEKSIRDAYGAYVPLQCTEYGSVDREKLSIGEFEYPYNTTGACAVEMEVDTMTGYNRLLRVDIVMDVGESLNPAIDIGQIEGAFMQGYGLVTCEKITFNKETGQLNQNSAGQYKIPKSSDVPKDFRVKLLGINKANGAKVYSSKGIGEPPLMMSCGAVHSCIMNCIDDWRKENGIDKFVDTISPLSADKIQELCSCNN
MKKVIKKYFFLALAIIMYSCNEDEKYDILERYTPETITSDEIAPVLNLQAQYMDSNSEIVLVTWMNPEDDFLSKVEISCCSANDNLLGEPVLLDAVSTKVGSYQTSLSVEERGYVKIVAINEKGVRSEARTAEILSSQQDFVYRADCLMSSVIELFFGGRYNAWNENYPNATGPYWDGIAAVWGQGAAYSGFVTMYKVTKETNNEKLRAKYAEKEETFLNSIDIFLNNGSGRKSFAYGTYIGPNDERYYDDNVWIGIEMANLYELTGNEVYLQHANTVWNFILEGIDDVTGGGVYWKEGAVSKHTCSTAPAAVMALKLYQLSKNESYLEIAKSLYSYCKDVLQDPNDYLFYDNVRLSDPSDKNSELKVSKDKFTYNSGQPMLAAAMLYRITKEEQFLKDAQNIAQSIYKKWFKNYHSSILDRDIMILSDPNTWFNAVMFRGFVELYKIDKNDVYVKAVKNTMEHAWQSNCRNRLTNLMSDDYAGDKKEGKWNIKTQGAFVEIFSLIGELEQLGCFQELEHHHHHH
MGSDKIHHHHHHKFIIFTYKDSYINQSATFHSDRTNLNIKREKCDFSFFNISIGHKLSLSLQNLIINPFNYMAFTNNIMIVRHRLLTELVKLWKNGELTTDKIDRLPLELSPRRSKHAGRCCVHKERAVWKYKSLPLLGLDMDDETDELTPLSEYAARSIERANNGKPKDNIMCVIDEACSACVQINYEITDLCRGCTARSCQYNCPKGAVHVHADTGKAWIDHDTCISCGICHKSCPYHAIVYIPVPCEESCPVKAISKDEHGIEHIDENKCIYCGKCMNACPFGAIFEISQTFDVLQRIRKGEQVVAIVAPSILGQFSTTIEQVYGAFRQIGFTDIIEVAQGAMSTVEHEAHELIEKLEEGQKFMTTSCCPSYIELVNKYIPDMKKYVSGTGSPMYYAARIAKEKYPDAKIVFVGPCVAKRKEAQRDEAVDFVMTFEEISSIFDAFEINLEIVQPYAMEFSSVREAHGFAQAGGVMGAVKAFLKMEADKINAIQVSDLNKKNIGTLRAYAKSGKAPGQFIEVMACEGGCITGPSTHSGSNNGKRQLVQELAKQKKTY
MAGDPMVNRETLIARIEQELVQAEQAQHDHDFEKHMYAIHILTSLYASTSNTPHIGEQQMNRRIANHNQMPQSQITQPTHQVTAAEIEAMGGKVNTHSAHHHNKSYSQPSNQQQRLATDDDIGNGESIFDFLEHHHHHH
MSLSESVIADFVGKFNSEVAGRGDPIRGRVVLSQKRLVLAASEDDKLTIPLDSIFDIAVGQVPPDLGDFFDSTVTIAFEHRGKRLVAAIEAGDEKIEKFGTVLFKAIINGTETTVKERARVGGRVTEESFKTAKLFLTPGNVEFRRSDGSFNVDLKTVSDFDRNTREINGKGRPVLTVRHMKDGTAMTTLAAMASNRKMSILGRYLRREYAELMEEIEDVDLTKDKKEVLVAMYSTGDMDGMPLASILGKDSSQVSMILQDLAADGLVQDGSDGPTLTPTGKVVASRHLEDVNAEGHHHHHH
MGSDKIHHHHHHMPFLLSGHLSDQSCKAGTLPYKIRIVLILFLCPHMCLTNDEGSAVPATDLAAHQIHILYTDHHGWLYNWLRHKLGNACDAADIAQDTFMRILTRQQPVHLNEPRAYLSTIAHGLVIDHWRRRELERAWLETLASLPEPEAPAPETRLIFLEALIEIDRLLDSLKPRVRTTFLLAQLDGLTCPQIAERLGVSLSTVERYITKALRSCYMLRFEP
MSHSIEQLSINTIRTLSIDAIEKANSGHPGMPMGAAPMAYTLWTQFMKHNPNNPTWFNRDRFVLSAGHGSMLLYSLLHLSGYDVTMDDLKNFRQWGSKTPGHPEYGHTAGVDATTGPLGQGIATAVGMAMAERHLAAKYNRDAYNIVDHYTYAICGDGDLMEGVSAEASSLAAHLQLGRLVVLYDSNDISLDGDLNRSFSESVEDRYKAYGWQVIRVEDGNDIEAIAKAIEEAKADEKRPTLIEVRTTIGFGSPNKSGKSASHGSPLGVEETKLTKEAYAWTAEQDFHVAEEVYENFRKTVQDVGETAQAEWNTMLGEYAQAYPELANELQAAMNGLLPEGWEQNLPTYELGSKAATRNSSGAVINAIAESVPSFFGGSADLAGSNKTYMNNEKDFTRDDYSGKNIWYGVREFAMGAAMNGIALHGGLKTYGGTFFVFSDYLRPAIRLAALMQLPVTYVFTHDSIAVGEDGPTHEPIEQLAALRAMPNVSVIRPADGNESVAAWRLALESTNKPTALVLTRQDLPTLEGAKDDTYEKVAKGAYVVSASKKETADVILLATGSEVSLAVEAQKALAVDGVDASVVSMPSMDRFEAQTAEYKESVLPKAVTKRFAIEMGATFGWHRYVGLEGDVLGIDTFGASAPGEKIMEEYGFTVENVVRKVKEML
MGNNQSGGPDARYGGPNDKAGLRRHRMMSETAKIAGQVLPNPDGGPPMIFDDGNEDKSGECPVVFRWSFTQNAQPRVVHIVGSWDNWQTRIPMVKSTNDFSTIIDLQPGQYEYKFQVDGSWVVDDNQGKAQDVHGNENNMINIQDSDFAVFEALDEDFQSSTAGEVLRGESESTKNHDTPNDRELEKLRSFTQEIPSMDMLRKAAGPPVIPPQLMQVLLNKETPESCDPNVLPEPNHVMLNHMYALSIKDSVMVLSSTQRYRKKFVTTLLYKPV
MSNFMVENQTEQVSIFLEDAINLITNYVNYHTLPSLLEETPAGNERYYKGLLASMRRLLVFCEEGQDACFVLLNSQPFRKTAAEKILYKIYHQVIAEFFSPKSDHWYENSRSAYTGKNSIVFQQTPPASLEQVMKSLEGKFQLMREELEYYETDYQTKMLHKY

Soluble on expression in E. coli, soluble:
NSSFTPSTVPNINFSGLNGGITNTATNALRPSDIFGANA
MTIKIALLGFGTVAKGIPYLLKENQHKLLSLEGEDIVIDKVLVRDNESRQRFINQGFTYNFVTEINTILQDSQIDIVVELMGGIEPAKTYLSQALGFGKHIVTANKDLIALHGKELMDLADARGLALFYEGAVAGGIPILRTLSHSFASDKMTRLLGILNGTSNFMLTKMFEEGWSYEQALKKAQELGYAESDPTNDVEGIDTAYKATILSQFGFGMPIDFDDVNYKGISSIRSEDVEVAQEMGFAIKLVADLRETPTGISVDVSPTLISQKHPLAAVNHVMNAVFIESIGIGQSLFYGPGAGQNPTATSVLADIIDISRSIRSQIKIKPMNTYHCPCRLSMQSDIFNEYYLAISLRNAEDSDTLGRYFEQENIGLKNVIEKALGDKQQEIYVLTDEVSQEKITQFIEEFPESGVIQLINVFKVIGGLEHHHHHH
MKKVGVVIPIYNVEKYLKECLDSVINQTYTNLEIILVNDGSTDENSLNIAKEYTLKDKRIILFDKKNGGLSSARNVGIEYFSGEYETQYIEKENELNVFKIIGDNPQNIYKIYKYKNALASDKLEISKIDYIIFLDSDNYWELNCIEECVVRMQNVDVLWFDHACIYDDGIEDKGQKTRMNVFNFTQECTITPRDYAKQAIKVGSRDISFSWGGMIDFSFLKQLKLKFINKIINEDIHFGMVLFASADSIYILPKRLYLCRLRANSISNHDKKVTKANVSEYFKDLYEFFGENAKEAKNYLKAASRMITALELIEFFKDQKNENSQAIKEAFLPFYVKKALMIKKFKKDPLNLKEKLPIIKPFIQTKIPYDLWKIWQKIKGILDKINFAK
MGKSSNIVFDRIKEERQMLSFFKIFQRADLSSDCMRALPYSFISKVSEKDFSYKMVIRAQWGKTWDVEVSKNPTYYYIETRGWDLFVSDNALGQNEFITFTHRGNMVFHVNIYEQNGLEMRKPRKFQTMGPSSGIKKEEGENSLIDVKKEEESDESPGRAEFLVRKKKTEDSKSSKKKMTRNKVKKKSKSKSKQVLDGVPEFKITIRKSYLKFLAIPKHFVDDHIPNKSKIFTIRHPNGGSWKVLCLVREIRTIFSGGYSKLAREFPLMVGDKCTFKLIKPFEFVLLTSKKNREKMDQCMID
GRRPRTAFTQNQIEVLENVFRVNCYPGIDILEDLAQKLNLELDRIQIWFQNRRAKLKRSHRESQFLM
MVKQVFNFNAGPSALPKPALERAQKELLNFNDTQMSVMELSHRSQSYEEVHEQAQNLLRELLQIPNDYQILFLQGGASLQFTMLPMNLLTKGTIGNYVLTGSWSEKALKEAKLLGETHIAASTKANSYQSIPDFSEFQLNENDAYLHITSNNTIYGTQYQNFPEINHAPLIADMSSDILSRPLKVNQFGMIYAGAQKNLGPSGVTVVIVKKDLLNTKVEQVPTMLQYATHIKSDSLYNTPPTFSIYMLRNVLDWIKDLGGAEAIAKQNEEKAKIIYDTIDESNGFYVGHAEKGSRSLMNVTFNLRNEELNQQFLAKAKEQGFVGLNGHRSVGGCRASIYNAVPIDACIALRELMIQFKENA
